According to IntAct's records for PubMed 29892012:

B1: MOB kinase activator 3C (Homo sapiens), Q70IA8 (parent)
chain: MALCLKQVFAKDKTFRPRKRFEPGTQRFELYKKAQASLKSGLDLRSVVRLPPGENIDDWIAVHVVDFFNRINLIYGTMAERCSETSCPVMAGGPRYEYRWQDERQYRRPAKLSAPRYMALLMDWIEGLINDEEVFPTRVGVPFPKNFQQVCTKILTRLFRVFVHVYIHHFDSILSMGAEAHVNTCYKHFYYFIREFSLVDQRELEPLREMTERICH
partner: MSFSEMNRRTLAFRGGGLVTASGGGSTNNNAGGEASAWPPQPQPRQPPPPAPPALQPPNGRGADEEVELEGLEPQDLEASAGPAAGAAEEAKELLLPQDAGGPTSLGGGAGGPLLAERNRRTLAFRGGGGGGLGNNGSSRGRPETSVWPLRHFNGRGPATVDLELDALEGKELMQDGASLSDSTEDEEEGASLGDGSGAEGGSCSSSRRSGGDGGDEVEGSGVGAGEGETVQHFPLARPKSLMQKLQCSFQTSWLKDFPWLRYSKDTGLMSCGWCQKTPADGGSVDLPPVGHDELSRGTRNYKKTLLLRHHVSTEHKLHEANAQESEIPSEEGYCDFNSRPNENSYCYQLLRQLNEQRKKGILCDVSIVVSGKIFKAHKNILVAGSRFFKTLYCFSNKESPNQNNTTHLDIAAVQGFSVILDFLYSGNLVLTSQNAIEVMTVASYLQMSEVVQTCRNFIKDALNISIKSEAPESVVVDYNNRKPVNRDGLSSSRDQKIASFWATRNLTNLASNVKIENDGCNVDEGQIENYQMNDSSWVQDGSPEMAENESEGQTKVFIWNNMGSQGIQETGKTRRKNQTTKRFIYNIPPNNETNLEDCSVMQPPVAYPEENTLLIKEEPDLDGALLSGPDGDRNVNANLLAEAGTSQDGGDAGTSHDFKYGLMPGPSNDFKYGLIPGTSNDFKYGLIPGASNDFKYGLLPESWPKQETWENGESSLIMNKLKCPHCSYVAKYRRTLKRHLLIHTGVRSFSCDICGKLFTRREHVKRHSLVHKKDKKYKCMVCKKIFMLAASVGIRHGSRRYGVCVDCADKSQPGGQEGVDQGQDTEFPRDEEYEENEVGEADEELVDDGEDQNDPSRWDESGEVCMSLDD
B2: Abl interactor 2 (Homo sapiens), Q9NYB9 (parent)
chain: MAELQMLLEEEIPGGRRALFDSYTNLERVADYCENNYIQSADKQRALEETKAYTTQSLASVAYLINTLANNVLQMLDIQASQLRRMESSINHISQTVDIHKEKVARREIGILTTNKNTSRTHKIIAPANLERPVRYIRKPIDYTILDDIGHGVKWLLRFKVSTQNMKMGGLPRTTPPTQKPPSPPMSGKGTLGRHSPYRTLEPVRPPVVPNDYVPSPTRNMAPSQQSPVRTASVNQRNRTYSSSGSSGGSHPSSRSSSRENSGSGSVGVPIAVPTPSPPSVFPAPAGSAGTPPLPATSASAPAPLVPATVPSSTAPNAAAGGAPNLADGFTSPTPPVVSSTPPTGHPVQFYSMNRPASRHTPPTIGGSLPYRRPPSITSQTSLQNQMNGGPFYSQNPVSDTPPPPPPVEEPVFDESPPPPPPPEDYEEEEAAVVEYSDPYAEEDPPWAPRSYLEKVVAIYDYTKDKEDELSFQEGAIIYVIKKNDDGWYEGVMNGVTGLFPGNYVESIMHYSE
partner: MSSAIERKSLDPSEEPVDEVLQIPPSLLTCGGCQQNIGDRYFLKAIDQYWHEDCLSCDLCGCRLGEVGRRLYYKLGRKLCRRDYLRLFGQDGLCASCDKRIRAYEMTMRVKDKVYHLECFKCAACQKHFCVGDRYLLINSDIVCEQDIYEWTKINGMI
B3: Isoform 2 of Synaptoporin (Homo sapiens), Q8TBG9-2 (parent)
chain: MDPVSQLASAGTFRVLKEPLAFLRALELLFAIFAFATCGGYSGGLRLSVDCVNKTESNLSIDIAFAYPFRLHQVTFEVPTCEGKERQKLALIGDSSSSAEFFVTVAVFAFLYSLAATVVYIFFQNKYRENNRGPLIDFIVTVVFSFLWLVGSSAWAKGLSDVKVATDPKEVLLLMSACKQPSNKCMAIHSPVMSSLNTSVVFGFLNFILWAGNIWFVFKETGWHSSGQRYLSDPMEKHSSSYNQGGYNQDSYGSSSGYSQQASLGPTSDEFGQQPTGPTSFTNQI
partner: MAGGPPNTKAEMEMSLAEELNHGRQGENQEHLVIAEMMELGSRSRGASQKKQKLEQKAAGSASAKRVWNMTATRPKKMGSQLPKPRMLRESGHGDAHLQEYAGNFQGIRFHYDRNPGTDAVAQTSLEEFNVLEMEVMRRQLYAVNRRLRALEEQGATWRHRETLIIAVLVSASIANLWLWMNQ
B4: E3 ubiquitin-protein ligase DZIP3 (Homo sapiens), Q86Y13 (parent)
chain: MDSLPDEFFVRHPAVEDQRKEETENKLEKSSGQLNKQENDIPTDLVPVNLLLEVKKLLNAINTLPKGVVPHIKKFLQEDFSFQTMQREVAANSQNGEEIVPALTLRFLITQLEAALRNIQAGNYTAHQINIGYYLTLLFLYGVALTERGKKEDYTEAENKFLVMKMMIQENEICENFMSLVYFGRGLLRCAQKRYNGGLLEFHKSLQEIGDKNDHWFDIDPTEDEDLPTTFKDLLNNFIKTTESNIMKQTICSYLDCERSCEADILKNTSYKGFFQLMCSKSCCVYFHKICWKKFKNLKYPGENDQSFSGKKCLKEGCTGDMVRMLQCDVPGIVKILFEVVRKDEYITIENLGASYRKLISLKITDTDIRPKISLKFNTKDEMPIFKLDYNYFYHLLHIIIISGTDIVRQIFDEAMPPPLLKKELLIHKNVLESYYNHLWTNHPLGGSWHLLYPPNKELPQSKQFDLCLLLALIKHLNVFPAPKKGWNMEPPSSDISKSADILRLCKYRDILLSEILMNGLTESQFNSIWKKVSDILLRLGMMQEDIDKVKENPIENISLDYHQLSVYLGIPVPEIIQRMLSCYQQGIALQSITGSQRIEIEELQNEEEELSPPLMEYNINVKSHPEIQFAEINKDGTSIPSESSTESLKDLQEVKSKQRKKKKTKNKKNKDSKEDQVPYVVEKEEQLRKEQANPHSVSRLIKDDASDVQEDSAMEDKFYSLDELHILDMIEQGSAGKVTTDYGETEKERLARQRQLYKLHYQCEDFKRQLRTVTFRWQENQMQIKKKDKIIASLNQQVAFGINKVSKLQRQIHAKDNEIKNLKEQLSMKRSQWEMEKHNLESTMKTYVSKLNAETSRALTAEVYFLQCRRDFGLLHLEQTEKECLNQLARVTHMAASNLESLQLKAAVDSWNAIVADVRNKIAFLRTQYNEQINKVKQGFALSTLPPVQLPPPPPSPEILMQQFLGRPLVKESFFRPILTVPQMPAVCPGVVSATGQPRAPLMTGIAWALPAPVGDAVPPSAGLRSDPSIMNWERITDRLKTAFPQQTRKELTDFLRKLKDAYGKSLSELTFDEIVCKISQFIDPKKSQSQGKSVSNVNCVSPSHSPSQPDAAQPPKPAWRPLTSQGPATWEGASNPDEEEEEEEPCVICHENLSPENLSVLPCAHKFHAQCIRPWLMQQGTCPTCRLHVLLPEEFPGHPSRQLPKI
partner: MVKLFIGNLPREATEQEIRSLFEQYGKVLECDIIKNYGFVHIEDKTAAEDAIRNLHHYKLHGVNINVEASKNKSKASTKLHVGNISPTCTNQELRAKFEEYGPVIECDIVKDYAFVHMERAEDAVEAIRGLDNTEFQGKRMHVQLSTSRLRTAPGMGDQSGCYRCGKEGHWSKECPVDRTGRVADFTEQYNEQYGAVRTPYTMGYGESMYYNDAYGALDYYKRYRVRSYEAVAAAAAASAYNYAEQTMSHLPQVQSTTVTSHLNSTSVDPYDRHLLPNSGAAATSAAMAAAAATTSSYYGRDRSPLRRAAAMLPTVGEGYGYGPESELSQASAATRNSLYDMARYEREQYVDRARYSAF
B5: Abl interactor 2 (Homo sapiens), Q9NYB9 (parent)
chain: B2 chain
partner: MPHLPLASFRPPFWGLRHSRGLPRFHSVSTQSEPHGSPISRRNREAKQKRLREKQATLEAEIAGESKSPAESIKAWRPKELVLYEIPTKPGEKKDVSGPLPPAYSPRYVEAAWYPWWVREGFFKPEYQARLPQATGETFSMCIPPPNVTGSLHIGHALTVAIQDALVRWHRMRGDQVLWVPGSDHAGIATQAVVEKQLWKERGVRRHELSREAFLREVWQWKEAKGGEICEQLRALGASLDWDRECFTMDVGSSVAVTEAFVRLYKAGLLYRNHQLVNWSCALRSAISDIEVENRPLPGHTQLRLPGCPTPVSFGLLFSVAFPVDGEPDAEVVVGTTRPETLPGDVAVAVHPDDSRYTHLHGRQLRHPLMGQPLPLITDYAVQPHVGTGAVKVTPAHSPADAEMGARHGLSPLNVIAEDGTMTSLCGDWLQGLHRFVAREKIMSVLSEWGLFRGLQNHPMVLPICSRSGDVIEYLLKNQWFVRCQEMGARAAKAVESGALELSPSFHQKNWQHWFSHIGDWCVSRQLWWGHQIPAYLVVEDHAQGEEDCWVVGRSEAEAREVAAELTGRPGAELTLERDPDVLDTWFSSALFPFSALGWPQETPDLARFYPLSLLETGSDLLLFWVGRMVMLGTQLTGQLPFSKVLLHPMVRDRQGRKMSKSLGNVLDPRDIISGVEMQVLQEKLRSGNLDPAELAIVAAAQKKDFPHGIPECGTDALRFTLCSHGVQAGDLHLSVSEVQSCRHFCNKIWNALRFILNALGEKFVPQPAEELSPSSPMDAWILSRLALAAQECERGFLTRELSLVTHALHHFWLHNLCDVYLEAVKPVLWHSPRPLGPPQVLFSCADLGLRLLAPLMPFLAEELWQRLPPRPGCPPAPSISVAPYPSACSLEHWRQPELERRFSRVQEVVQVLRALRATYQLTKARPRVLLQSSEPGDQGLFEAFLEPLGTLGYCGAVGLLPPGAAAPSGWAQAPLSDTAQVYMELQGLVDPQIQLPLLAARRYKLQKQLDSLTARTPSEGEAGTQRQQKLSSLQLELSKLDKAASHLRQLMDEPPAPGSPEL

Variants of: B1
Conditions: with zbt10_human ZBTB10, Q96DT7

| effect of a mutation on the interaction | Variant |
| --- | --- |
| disrupting interaction strength | I173F |

Variants of: B2
Conditions: with rbtn2_human LMO2, P25791

| effect of a mutation on the interaction | Variant |
| --- | --- |
| with no effect | E202K |

Variants of: B2
Conditions: with rbtn2_human LMO2, P25791
Remark: another data set of the same source

| effect of a mutation on the interaction | Variant |
| --- | --- |
| with no effect | R373C |

Variants of: B3
Conditions: with fate1_human FATE1, Q969F0

| effect of a mutation on the interaction | Variant |
| --- | --- |
| with no effect | A115P |

Variants of: B4
Conditions: with rbm4b_human RBM4B

| effect of a mutation on the interaction | Variant |
| --- | --- |
| disrupting interaction strength | M1032R |

Variants of: B5
Conditions: with syvm_human VARS2, Q5ST30

| effect of a mutation on the interaction | Variant |
| --- | --- |
| with no effect | E202K |
